Assay in all cases: cell-based or functional assay
Test [1] concerns the target T1, CRF1R receptor (anti-target) (UniProt P34998 24-415, limits assumed).
T1 sequence (looked up): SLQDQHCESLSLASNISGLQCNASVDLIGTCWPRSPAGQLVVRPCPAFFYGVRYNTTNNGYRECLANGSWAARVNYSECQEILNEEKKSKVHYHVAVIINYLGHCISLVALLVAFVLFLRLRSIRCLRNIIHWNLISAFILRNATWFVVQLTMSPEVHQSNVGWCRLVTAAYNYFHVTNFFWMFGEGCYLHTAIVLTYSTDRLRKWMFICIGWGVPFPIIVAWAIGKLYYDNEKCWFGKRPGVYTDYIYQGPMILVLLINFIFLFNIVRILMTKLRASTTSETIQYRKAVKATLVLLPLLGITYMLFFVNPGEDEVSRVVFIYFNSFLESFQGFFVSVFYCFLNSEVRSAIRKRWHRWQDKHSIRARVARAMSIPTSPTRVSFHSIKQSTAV

For test [2], the target named is human corticotropin-releasing factor 2α receptor (CRF2α receptor) (human), Q13324.
The target of test [3] is human corticotropin-releasing factor 2α (CRF2α receptor) (human), Q13324.

Starred links: 1 amine or outer side, 2 acyl side, 3 side chain; linkers in the order of their positions; H or OH if unused. Non-standard residues stand in square brackets, D forms with d. Groups on a side chain read outwards from the residue. No end group written: not given here. *: point of attachment. C16 diacid = O=C(O)CCCCCCCCCCCCCCC(=O)*; γGlu = O=C(O)[C@H](CCC(=O)[*:2])N[*:1]; Palmitoyl = CCCCCCCCCCCCCCCC(=O)*; Aib = CC(C)(N)C(=O)O

Chain of human corticotropin-releasing factor 2α receptor (CRF2α receptor) (human), Q13324 (Q13324 20-411): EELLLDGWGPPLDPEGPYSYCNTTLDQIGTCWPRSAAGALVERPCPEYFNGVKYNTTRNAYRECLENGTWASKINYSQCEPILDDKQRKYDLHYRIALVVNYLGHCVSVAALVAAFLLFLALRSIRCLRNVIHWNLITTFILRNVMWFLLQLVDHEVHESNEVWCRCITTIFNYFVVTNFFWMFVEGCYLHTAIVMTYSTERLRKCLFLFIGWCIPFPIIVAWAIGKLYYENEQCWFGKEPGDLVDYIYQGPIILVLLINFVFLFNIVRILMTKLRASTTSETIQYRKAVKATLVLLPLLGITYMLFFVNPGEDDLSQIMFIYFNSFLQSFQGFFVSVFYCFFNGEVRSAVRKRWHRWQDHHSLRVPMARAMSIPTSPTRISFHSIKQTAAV
Chain of human corticotropin-releasing factor 2α (CRF2α receptor) (human), Q13324 (Q13324 20-411): as above

B1: peptide of SEQ ID NO: 192 (peptide)
peptide: IVLSLD[dV]PIKLK([γGlu-C16 diacid])QILLKQERQKKQRQQAEKNKQILAQV-NH2
modifications: N-terminus assumed
SMILES: CC[C@H](C)[C@H](N)C(=O)N[C@H](C(=O)N[C@@H](CC(C)C)C(=O)N[C@@H](CO)C(=O)N[C@@H](CC(C)C)C(=O)N[C@@H](CC(=O)O)C(=O)N[C@@H](C(=O)N1CCC[C@H]1C(=O)N[C@H](C(=O)N[C@@H](CCCCN)C(=O)N[C@@H](CC(C)C)C(=O)N[C@@H](CCCCNC(=O)CC[C@H](NC(=O)CCCCCCCCCCCCCCC(=O)O)C(=O)O)C(=O)N[C@@H](CCC(N)=O)C(=O)N[C@H](C(=O)N[C@@H](CC(C)C)C(=O)N[C@@H](CC(C)C)C(=O)N[C@@H](CCCCN)C(=O)N[C@@H](CCC(N)=O)C(=O)N[C@@H](CCC(=O)O)C(=O)N[C@@H](CCCNC(=N)N)C(=O)N[C@@H](CCC(N)=O)C(=O)N[C@@H](CCCCN)C(=O)N[C@@H](CCCCN)C(=O)N[C@@H](CCC(N)=O)C(=O)N[C@@H](CCCNC(=N)N)C(=O)N[C@@H](CCC(N)=O)C(=O)N[C@@H](CCC(N)=O)C(=O)N[C@@H](C)C(=O)N[C@@H](CCC(=O)O)C(=O)N[C@@H](CCCCN)C(=O)N[C@@H](CC(N)=O)C(=O)N[C@@H](CCCCN)C(=O)N[C@@H](CCC(N)=O)C(=O)N[C@H](C(=O)N[C@@H](CC(C)C)C(=O)N[C@@H](C)C(=O)N[C@@H](CCC(N)=O)C(=O)N[C@H](C(N)=O)C(C)C)[C@@H](C)CC)[C@@H](C)CC)[C@@H](C)CC)C(C)C)C(C)C
Turning to B1, in test [1], the “CRF1/CRF2 ratio (of EC50)” value was determined as 68 and the “CRF1 EC50 (cAMP, HTRF)” value stood at 56.6 nM. For the same molecule, the CRF2 EC50 (cAMP, HTRF) in test [2] was determined as 0.83 nM. In test [3], the EC50 [nM], 0% HSA (cAMP, HTRF) came to 0.83 nM.

B2: peptide of SEQ ID NO: 188 (peptide)
peptide: IVLSLD[dV]PIKLK([γGlu-C16 diacid])QILLKQERQK[Aib]QRQQAEKNKQILAQV-NH2
modifications: N-terminus assumed
SMILES: CC[C@H](C)[C@H](N)C(=O)N[C@H](C(=O)N[C@@H](CC(C)C)C(=O)N[C@@H](CO)C(=O)N[C@@H](CC(C)C)C(=O)N[C@@H](CC(=O)O)C(=O)N[C@@H](C(=O)N1CCC[C@H]1C(=O)N[C@H](C(=O)N[C@@H](CCCCN)C(=O)N[C@@H](CC(C)C)C(=O)N[C@@H](CCCCNC(=O)CC[C@H](NC(=O)CCCCCCCCCCCCCCC(=O)O)C(=O)O)C(=O)N[C@@H](CCC(N)=O)C(=O)N[C@H](C(=O)N[C@@H](CC(C)C)C(=O)N[C@@H](CC(C)C)C(=O)N[C@@H](CCCCN)C(=O)N[C@@H](CCC(N)=O)C(=O)N[C@@H](CCC(=O)O)C(=O)N[C@@H](CCCNC(=N)N)C(=O)N[C@@H](CCC(N)=O)C(=O)N[C@@H](CCCCN)C(=O)NC(C)(C)C(=O)N[C@@H](CCC(N)=O)C(=O)N[C@@H](CCCNC(=N)N)C(=O)N[C@@H](CCC(N)=O)C(=O)N[C@@H](CCC(N)=O)C(=O)N[C@@H](C)C(=O)N[C@@H](CCC(=O)O)C(=O)N[C@@H](CCCCN)C(=O)N[C@@H](CC(N)=O)C(=O)N[C@@H](CCCCN)C(=O)N[C@@H](CCC(N)=O)C(=O)N[C@H](C(=O)N[C@@H](CC(C)C)C(=O)N[C@@H](C)C(=O)N[C@@H](CCC(N)=O)C(=O)N[C@H](C(N)=O)C(C)C)[C@@H](C)CC)[C@@H](C)CC)[C@@H](C)CC)C(C)C)C(C)C
Consider B2, for which, in test [1], the “CRF1/CRF2 ratio (of EC50)” value amounted to 134 and the “CRF1 EC50 (cAMP, HTRF)” value worked out at 69.1 nM. In test [2], the CRF2 EC50 (cAMP, HTRF) is 0.46 nM. In test [3], this molecule returned an EC50 [nM], 0% HSA (cAMP, HTRF) of 0.46 nM.

B3: peptide of SEQ ID NO: 197 (peptide)
peptide: IVLSLD[dV]PIKLK([γGlu-C16 diacid])QILLKQARQK[Aib]QRAQAEKNKRILERV-NH2
modifications: N-terminus assumed
SMILES: CC[C@H](C)[C@H](N)C(=O)N[C@H](C(=O)N[C@@H](CC(C)C)C(=O)N[C@@H](CO)C(=O)N[C@@H](CC(C)C)C(=O)N[C@@H](CC(=O)O)C(=O)N[C@@H](C(=O)N1CCC[C@H]1C(=O)N[C@H](C(=O)N[C@@H](CCCCN)C(=O)N[C@@H](CC(C)C)C(=O)N[C@@H](CCCCNC(=O)CC[C@H](NC(=O)CCCCCCCCCCCCCCC(=O)O)C(=O)O)C(=O)N[C@@H](CCC(N)=O)C(=O)N[C@H](C(=O)N[C@@H](CC(C)C)C(=O)N[C@@H](CC(C)C)C(=O)N[C@@H](CCCCN)C(=O)N[C@@H](CCC(N)=O)C(=O)N[C@@H](C)C(=O)N[C@@H](CCCNC(=N)N)C(=O)N[C@@H](CCC(N)=O)C(=O)N[C@@H](CCCCN)C(=O)NC(C)(C)C(=O)N[C@@H](CCC(N)=O)C(=O)N[C@@H](CCCNC(=N)N)C(=O)N[C@@H](C)C(=O)N[C@@H](CCC(N)=O)C(=O)N[C@@H](C)C(=O)N[C@@H](CCC(=O)O)C(=O)N[C@@H](CCCCN)C(=O)N[C@@H](CC(N)=O)C(=O)N[C@@H](CCCCN)C(=O)N[C@@H](CCCNC(=N)N)C(=O)N[C@H](C(=O)N[C@@H](CC(C)C)C(=O)N[C@@H](CCC(=O)O)C(=O)N[C@@H](CCCNC(=N)N)C(=O)N[C@H](C(N)=O)C(C)C)[C@@H](C)CC)[C@@H](C)CC)[C@@H](C)CC)C(C)C)C(C)C
For the molecule B3, the CRF2 EC50 (cAMP, HTRF) in test [2] worked out at 2.27 nM. Also, the EC50 [nM], 0% HSA (cAMP, HTRF) in test [3] came out at 2.27 nM.

B4: peptide of SEQ ID NO: 196 (peptide)
peptide: IVLSLD[dV]PIGLK([γGlu-C16 diacid])QILLKQERQKK[Aib]REQAEKNKRILERV-NH2
modifications: N-terminus assumed
SMILES: CC[C@H](C)[C@H](N)C(=O)N[C@H](C(=O)N[C@@H](CC(C)C)C(=O)N[C@@H](CO)C(=O)N[C@@H](CC(C)C)C(=O)N[C@@H](CC(=O)O)C(=O)N[C@@H](C(=O)N1CCC[C@H]1C(=O)N[C@H](C(=O)NCC(=O)N[C@@H](CC(C)C)C(=O)N[C@@H](CCCCNC(=O)CC[C@H](NC(=O)CCCCCCCCCCCCCCC(=O)O)C(=O)O)C(=O)N[C@@H](CCC(N)=O)C(=O)N[C@H](C(=O)N[C@@H](CC(C)C)C(=O)N[C@@H](CC(C)C)C(=O)N[C@@H](CCCCN)C(=O)N[C@@H](CCC(N)=O)C(=O)N[C@@H](CCC(=O)O)C(=O)N[C@@H](CCCNC(=N)N)C(=O)N[C@@H](CCC(N)=O)C(=O)N[C@@H](CCCCN)C(=O)N[C@@H](CCCCN)C(=O)NC(C)(C)C(=O)N[C@@H](CCCNC(=N)N)C(=O)N[C@@H](CCC(=O)O)C(=O)N[C@@H](CCC(N)=O)C(=O)N[C@@H](C)C(=O)N[C@@H](CCC(=O)O)C(=O)N[C@@H](CCCCN)C(=O)N[C@@H](CC(N)=O)C(=O)N[C@@H](CCCCN)C(=O)N[C@@H](CCCNC(=N)N)C(=O)N[C@H](C(=O)N[C@@H](CC(C)C)C(=O)N[C@@H](CCC(=O)O)C(=O)N[C@@H](CCCNC(=N)N)C(=O)N[C@H](C(N)=O)C(C)C)[C@@H](C)CC)[C@@H](C)CC)[C@@H](C)CC)C(C)C)C(C)C
Turning to B4, the CRF2 EC50 (cAMP, HTRF) in test [2] came out at 1.08 nM. Besides, the EC50 [nM], 0% HSA (cAMP, HTRF) in test [3] stood at 1.08 nM.

B5: peptide of SEQ ID NO: 204 (peptide)
peptide: IVLSLD[dV]PIKLK([γGlu-Palmitoyl])QILLKQERQK[Aib]QREQAEKNKQILAQV-NH2
modifications: N-terminus assumed
SMILES: CCCCCCCCCCCCCCCC(=O)N[C@@H](CCC(=O)NCCCC[C@H](NC(=O)[C@H](CC(C)C)NC(=O)[C@H](CCCCN)NC(=O)[C@@H](NC(=O)[C@@H]1CCCN1C(=O)[C@H](NC(=O)[C@H](CC(=O)O)NC(=O)[C@H](CC(C)C)NC(=O)[C@H](CO)NC(=O)[C@H](CC(C)C)NC(=O)[C@@H](NC(=O)[C@@H](N)[C@@H](C)CC)C(C)C)C(C)C)[C@@H](C)CC)C(=O)N[C@@H](CCC(N)=O)C(=O)N[C@H](C(=O)N[C@@H](CC(C)C)C(=O)N[C@@H](CC(C)C)C(=O)N[C@@H](CCCCN)C(=O)N[C@@H](CCC(N)=O)C(=O)N[C@@H](CCC(=O)O)C(=O)N[C@@H](CCCNC(=N)N)C(=O)N[C@@H](CCC(N)=O)C(=O)N[C@@H](CCCCN)C(=O)NC(C)(C)C(=O)N[C@@H](CCC(N)=O)C(=O)N[C@@H](CCCNC(=N)N)C(=O)N[C@@H](CCC(=O)O)C(=O)N[C@@H](CCC(N)=O)C(=O)N[C@@H](C)C(=O)N[C@@H](CCC(=O)O)C(=O)N[C@@H](CCCCN)C(=O)N[C@@H](CC(N)=O)C(=O)N[C@@H](CCCCN)C(=O)N[C@@H](CCC(N)=O)C(=O)N[C@H](C(=O)N[C@@H](CC(C)C)C(=O)N[C@@H](C)C(=O)N[C@@H](CCC(N)=O)C(=O)N[C@H](C(N)=O)C(C)C)[C@@H](C)CC)[C@@H](C)CC)C(=O)O
As to B5, in test [1], the “CRF1/CRF2 ratio (of EC50)” value was 3 and the “CRF1 EC50 (cAMP, HTRF)” value is 0.44 nM. The CRF2 EC50 (cAMP, HTRF) in test [2] is 0.14 nM. Also, in test [3], the EC50 [nM], 0% HSA (cAMP, HTRF) is 0.14 nM.
